Patent publication US20230331815A1 (priority 2020, published 2023)

B1: Recombinant lactoferrin: recombinant lactoferrin expressed or manufactured in other species, e.g., plant species such as rice (e.g., Ventria Bioscience) (protein, UniProt P02788 20-710, looked up)
Lactotransferrin: GRRRSVQWCAVSQPEATKCFQWQRNMRKVRGPPVSCIKRDSPIQCIQAIAENRADAVTLDGGFIYEAGLAPYKLRPVAAEVYGTERQPRTHYYAVAVVKKGGSFQLNELQGLKSCHTGLRRTAGWNVPIGTLRPFLNWTGPPEPIEAAVARFFSASCVPGADKGQFPNLCRLCAGTGENKCAFSSQEPYFSYSGAFKCLRDGAGDVAFIRESTVFEDLSDEAERDEYELLCPDNTRKPVDKFKDCHLARVPSHAVVARSVNGKEDAIWNLLRQAQEKFGKDKSPKFQLFGSPSGQKDLLFKDSAIGFSRVPPRIDSGLYLGSGYFTAIQNLRKSEEEVAARRARVVWCAVGEQELRKCNQWSGLSEGSVTCSSASTTEDCIALVLKGEADAMSLDGGYVYTAGKCGLVPVLAENYKSQQSSDPDPNCVDRPVEGYLAVAVVRRSDTSLTWNSVKGKKSCHTAVDRTAGWNIPMGLLFNQTGSCKFDEYFSQSCAPGSDPRSNLCALCIGDEQGENKCVPNSNERYYGYTGAFRCLAENAGDVAFVKDVTVLQNTDGNNNEAWAKDLKLADFALLCLDGKRKPVTEARSCHLAMAPNHAVVSRMDKVERLKQVLLHQQAKFGRNGSDCPDKFCLFQSETKNLLFNDNTECLARLHGKTTYEKYLGPQYVAGITNLKKCSTSPLLEACEFLRK
modifications: expressed in rice
B2: hLF: human lactoferrin (LF), 711 amino acids, SEQ ID NO:4; 70-80 kDa basic protein of the transferrin family (protein, listed as Homo sapiens)
chain: MKLVFLVLLFLGALGLCLAGRRRRSVQWCAVSQPEATKCFQWQRNMRKVRGPPVSCIKRDSPIQCIQAIAENRADAVTLDGGFIYEAGLAPYKLRPVAAEVYGTERQPRTHYYAVAVVKKGGSFQLNELQGLKSCHTGLRRTAGWNVPIGTLRPFLNWTGPPEPIEAAVARFFSASCVPGADKGQFPNLCRLCAGTGENKCAFSSQEPYFSYSGAFKCLRDGAGDVAFIRESTVFEDLSDEAERDEYELLCPDNTRKPVDKFKDCHLARVPSHAVVARSVNGKEDAIWNLLRQAQEKFGKDKSPKFQLFGSPSGQKDLLFKDSAIGFSRVPPRIDSGLYLGSGYFTAIQNLRKSEEEVAARRARVVWCAVGEQELRKCNQWSGLSEGSVTCSSASTTEDCIALVLKGEADAMSLDEGYVYTAGKCGLVPVLAENYKSQQSSDPDPNCVDRPVEGYLAVAVVRRSDTSLTWNSVKGKKSCHTAVDRTAGWNIPMGLLFNQTGSCKFDEYFSQSCAPGSDPRSNLCALCIGDEQGENKCVPNSNERYYGYTGAFRCLAENAGDVAFVKDVTVLQNTDGNNNEAWAKDLKLADFALLCLDGKRKPVTEARSCHLAMAPNHAVVSRMDKVERLKQVLLHQQAKFGRNGSDCPDKFCLFQSETKNLLFNDNTECLARLHGKTTYEKYLGPQYVAGITNLKKCSTSPLLEACEFLRK

Tests used:
SARS-CoV-2 pseudovirus = assay type: cell-based
[1] = acidic pH conditions during inflammation; cited from earlier work
SARS-CoV pseudovirus [2] = assay type: cell-based
HSPG receptor = test: hLF cell membrane localization, confocal microscopy of VeroE6/T cells; assay type: cell-based, African green monkey; details: 2.5 µM hLF, cells chilled at 4° C., anti-hLF staining
Method: To visualize cell membrane localization of human lactoferrin (hLF), VeroE6/T cells (0.75×10^5 cells/well) were chilled at 4° C. for 1 hr, incubated with 2.5 µM of hLF. Cells were washed, fixed using 4% PFA (Invitrogen), stained with anti-hLF antibody, and fluorescent image was taken under confocal microscope (FIG. 10, middle row). Cell nuclei were visualized using DAPI (FIG. 10, bottom row). To visualize the cell surface and nuclei at the same time, the confocal images above (i.e., FIG. 10, middle and bottom rows) were merged and are presented in FIG. 10, top row. […] To see the effect of heparin on the binding of hLF to the cell surface (specifically the HSPG receptor), cells were co-incubated with hLF and heparin (H), and the confocal image was taken (FIG. 10, right column).

SARS-CoV pseudovirus [3] = details: cited from earlier work
ACE2 receptor = ACE2 receptor (Homo sapiens, UniProt Q9BYF1); test: Effect on ACE2 receptor enzyme activity; assay type: biochemical; details: binds away from the enzyme active site
Source text: The results were proven using a small molecule inhibitor. This type of fusion protein enables both lactoferrin to bind to the HSPG on the cell surface and the receptor binding site on the S protein to bind to the ACE2 receptor on the cell surface, thereby tying up both the receptor and co-receptor on the host cell and preventing entry of the virus into the cell. […] Thus, in some embodiments, a recombinant protein as described herein, wherein the receptor binding domain of the SARS-CoV-2 spike (S) protein is fused with lactoferrin, binds to the host cell surface receptors (e.g., ACE2 receptor and HSPG) and prevent binding of the SARS-CoV-2 virus from binding and entering the host cell. This approach is different from other studies in the art, in which recombinant proteins bind to the viral particles themselves to prevent attachment of the virus to the cell. The present disclosure rather discloses a recombinant protein that binds to the host cell and effectively ties up the cell surface receptors such that the virus particles can no longer bind and infect the cell.

Sequence of ACE2 receptor (Q9BYF1 18-805): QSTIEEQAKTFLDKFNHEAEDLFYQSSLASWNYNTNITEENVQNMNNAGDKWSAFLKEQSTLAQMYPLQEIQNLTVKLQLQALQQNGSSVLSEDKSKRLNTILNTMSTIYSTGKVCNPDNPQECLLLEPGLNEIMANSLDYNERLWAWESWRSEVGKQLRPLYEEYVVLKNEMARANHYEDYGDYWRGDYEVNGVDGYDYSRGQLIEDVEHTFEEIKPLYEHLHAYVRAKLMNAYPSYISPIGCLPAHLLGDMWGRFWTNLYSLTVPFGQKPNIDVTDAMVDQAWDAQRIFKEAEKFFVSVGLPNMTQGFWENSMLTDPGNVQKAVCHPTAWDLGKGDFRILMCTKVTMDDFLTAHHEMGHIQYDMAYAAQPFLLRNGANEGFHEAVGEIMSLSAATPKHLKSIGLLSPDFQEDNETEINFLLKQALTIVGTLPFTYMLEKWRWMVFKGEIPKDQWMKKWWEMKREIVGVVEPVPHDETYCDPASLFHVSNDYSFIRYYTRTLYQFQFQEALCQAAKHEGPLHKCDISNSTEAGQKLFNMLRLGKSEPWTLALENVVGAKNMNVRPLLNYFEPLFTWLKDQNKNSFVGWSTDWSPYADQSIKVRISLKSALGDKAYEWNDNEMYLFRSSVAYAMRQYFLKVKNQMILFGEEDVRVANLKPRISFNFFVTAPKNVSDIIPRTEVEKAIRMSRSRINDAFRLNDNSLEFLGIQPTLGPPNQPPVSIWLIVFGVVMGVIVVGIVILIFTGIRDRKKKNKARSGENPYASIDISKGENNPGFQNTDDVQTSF

Row | Molecule | anti-viral effective concentration range (SARS-CoV-2 pseudovirus; virus not named) | iron affinity relative to transferrin [1] | entry of SARS-CoV virus into cells (SARS-CoV pseudovirus [2]) | inhibition of SARS-CoV-2 infection in target cells (SARS-CoV-2 pseudovirus; VeroE6 or VeroE6/Tmprss2) | entry of SARS-CoV-2 virus into cells (SARS-CoV-2 pseudovirus; in vitro) | binding to HSPG receptor on the cell membrane (HSPG receptor) | SARS pseudovirus entry (SARS-CoV pseudovirus [3]) | effect on ACE2 receptor enzyme activity / cellular function (ACE2 receptor)
1 | B1 | effective in the low µM range | – | – | – | – | – | – | –
2 | B2 | – | 30 times higher than transferrin | prevent entry | efficient inhibitor | prevent entry | binds the HSPG receptor on the cell membrane | prevents SARS pseudovirus entry | does not interfere with ACE2 receptor activity
